{
  "source": "the nanobody polyreactivity screen of Harvey et al. (2022)",
  "data": [
    {"assay": "yeast display, Sf9 membrane polyspecificity reagent, FACS + sequencing; frameworks hold sequencing errors", "method_in_brief": "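Galactose-induced (36–48 hours) yeast carrying a synthetic nanobody display library were exposed to 10% biotinylated, detergent-solubilized Sf9 membrane reagent at 4 °C for 1 hour. FACS followed streptavidin microbead enrichment, using low and high (top ~1%) gates for expression (anti-HA) and reagent binding (streptavidin). Colony PCR, MiSeq 2 × 250 sequencing and CDR-length filtering followed. Labels for polyreactivity reflect the gate of origin.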", "values": [
      {"sequence": "QVQLVESGGGLVQAGGSLRLSCAASGKIFNNYVMGWYRQAPGKVRELVARIDSGGSTNYADSVKGRFTISRDNAKNTVYLQMNSLKPEDTAVYYCAARKLSSYAYDYWGQGTQVTVSS", "polyreactivity (PSR sort gate)": "low polyreactivity"},
      {"sequence": "QVQLVESGGGLVQAGGSLRLSCAASGLIFAEYAMGWYRQAPGKERELVARITSGGSTDYADSVKGRFTISRDNAKNTVYLQMNSLKPEDTALYYCAARYYSQDNNASTASDFDYWGQGTQVTVSS", "polyreactivity (PSR sort gate)": "low polyreactivity"},
      {"sequence": "QVQLVESGGGLVQAGGSLRLSCAASGLIFAHNTMGWYRQATGKERELVAAISATGDGNTYYADSLKGRFTISRDNAKNTVYLQMNSLKPEDTAVYYCNALYYDYYAEYYGESDYWGQGTQVTVSS", "polyreactivity (PSR sort gate)": "low polyreactivity"},
      {"sequence": "QVQLVESGGGLVQAGGSLRLSCAASGLIFAWYAMGWYRQAPGKERELVAAITGTGSSTYYADSVKGRFTISRDNAKNTVYLQMNSLKPEDTAVYYCNRGYFNSRTPTFDYWGQGTQVTVSS", "polyreactivity (PSR sort gate)": "low polyreactivity"},
      {"sequence": "QVQLVESGGGLVQAGGSLRLSCAASGLIFDINAMGWYRQAPGKERELVAAITWRGGSTYYADSVKGRFTISRDNAKNTVYLQMNSLKPEDTAVYYCAAGWSYRNGVGVGDFYYGYDYWGQGTQVTVSS", "polyreactivity (PSR sort gate)": "high polyreactivity"},
      {"sequence": "QVQLVESGGGLVQAGGSLRLSCAASGLIFDLYAMGWYRQAPGKERELVAAITWSGGSTYYADSVKGRFTISRDNAKNTVYLQMNSLKPEDTAVYYCAAETHLWYDFDYWGQGTQVTVSS", "polyreactivity (PSR sort gate)": "high polyreactivity"},
      {"sequence": "QVQLVESGGGLVQAGGSLRLSCAASGLIFDPNTMGWYRQAPGKERELVAAISSGGDTNYADSVKGRFTISRDNAKNTVYLQMNSLKPEDTAVYYCAAERYYFPRSYRYGYWGQGTQVTVSS", "polyreactivity (PSR sort gate)": "low polyreactivity"},
      {"sequence": "QVQLVESGGGLVQAGGSLRLSCAASGLIFDSDAMGWYRQAPGKERELVAAITYTGGSTYYADSVKGRFTISRDSAKNTVYLQMNSLKPEDTAVYYCAARRQRDRYGYWGQGTKVTVSS", "polyreactivity (PSR sort gate)": "high polyreactivity"},
      {"sequence": "QVQLVESGGGLVQAGGSLRLSCAASGLIFDVNTMGWYRQAPRKERELVAAITGSGGRTYYADSVKGRFTISRDNAKNTVYLQMNSLKPEDNAVYYCNARHPASGDLYRMDYWGQGTQVTVSS", "polyreactivity (PSR sort gate)": "low polyreactivity"},
      {"sequence": "QVQLVESGGGLVQAGGSLRLSCAASGLIFDYNAMGWYRQAPGKERELVAAISSGGSTYYADSVKGRFTISRDNAKNTVYLQMNSLKPEDTAVYYCATRRQAQYTRYYGSRQFYYWGQGTQVTVSS", "polyreactivity (PSR sort gate)": "high polyreactivity"},
      {"sequence": "QVQLVESGGGLVQAGGSLRLSCAASGLIFDYNAMGWYRQAPGKEWELVAAISSGGSTYYADSVKGRFTISRDNANNTVYLQMNSLKPEDTAVYYCAARFSSYVRRYYYWGQGTQVTVSS", "polyreactivity (PSR sort gate)": "high polyreactivity"},
      {"sequence": "QVQLVESGGGLVQAGGSLRLSCAASGLIFDYYAMGWYRQAPGKERELVAAISSGGDTTYADSVKGRFTISRDNAKNTVYLQMNSLKPEDTAVYYCAADRWIPVYILGADGYDYWGQGTQVTVSS", "polyreactivity (PSR sort gate)": "low polyreactivity"},
      {"sequence": "QVQLVESGGGLVQAGGSLRLSCAASGLIFFQNAMGWYRQAPGKERELVAAITWSGGRTYYADSVKGRFTISRDNAKNTVYLQMKSLKPEDTEVYYCAADYDYPDYYAPSWPGYNYWGQGTQVTVSS", "polyreactivity (PSR sort gate)": "low polyreactivity"},
      {"sequence": "QVQLVESGGGLVQAGGSLRLSCAASGLIFFSYAMGWYRQAPGKERELVAAISRRGGRTYYADSVKGRFTISRDNAKNTVYLQMNSLKPEDTAASYCATYVASHRGDRTYDHWGQCTQVTVSS", "polyreactivity (PSR sort gate)": "low polyreactivity"},
      {"sequence": "QVQLVESGGGLVQAGGSLRLSCAASGLIFFTYAMGWYRQAPGKERELVAAITGRGGRTYYADSVKGRFTISRDNAKNTVYLQMNSLKPEDTAVYYCNAEYRYYQKTPGRYTNVEYDYWGQGTQVTVSS", "polyreactivity (PSR sort gate)": "low polyreactivity"},
      {"sequence": "QVQLVESGGGLVQAGGSLRLSCAASGLIFFVYAMGWYRQAPGKERELVAAISASGVSTNYADSVKGRFTISRDNAKNTVYLQMNSLKPEDTAVYYCAAGRGGYGYWGQGTQVTVSS", "polyreactivity (PSR sort gate)": "low polyreactivity"},
      {"sequence": "QVQLVESGGGLVQAGGSLRLSCAASGLIFGGNAMGWYRQAPGKERELVAAISRTGGRTYYADSVKGRFTISRDNAKNTVFLQMNSLKPEDTAVYYCAAAAQRPEGYYWGQGTQVTVSS", "polyreactivity (PSR sort gate)": "high polyreactivity"},
      {"sequence": "QVQLVESGGGLVQAGGSLRLSCAASGLIFGGNAMGWYRQAPGKERELVAAITYRTGSTYYADSVKGRFTISRDNAKNTVYLQMNSLKPEDTAVYYCAAAVSLGYPVAFYYWGQGTQVTVSS", "polyreactivity (PSR sort gate)": "low polyreactivity"},
      {"sequence": "QVQLVESGGGLVQAGGSLRLSCAASGLIFGRYAMGWYRPAPGKERELVAAITNSDGDTYYADSVKGRFTISRDNAKNTVYLQMNSLKPEDTAVYYCNADDALRQTSDYNYWGQGTQVTVSS", "polyreactivity (PSR sort gate)": "low polyreactivity"},
      {"sequence": "QVQLVESGGGLVQAGGSLRLSCAASGLIFGWYAMGWYRQAPGKEREFVASIRYGGGSTYYADSVKGRFTISRDNAKKTVYLQMNSLKPEDTAVYYCAAELSVDKYDYWGQGTQETVSS", "polyreactivity (PSR sort gate)": "low polyreactivity"},
      {"sequence": "QVQLVESGGGLVQAGGSLRLSCAASGLIFGYYALGWYRQAPGKDRELVAAINSGGSTYYADTVKGRFTISRDNAKNTVYLQMNSLKPEDTPVYNCAARYYSEYDYWGHGTQVTVSS", "polyreactivity (PSR sort gate)": "low polyreactivity"},
      {"sequence": "QVQLVESGGGLVQAGGSLRLSCAASGLIFGYYAMGWYRQAPGTEREFVAAIDGSDGTTYYADSVKGRFTISRDNAKNTVYLQMNSLKPEDTAVYYCNAESSSYSCDMGYDYWGQGTQVTVSS", "polyreactivity (PSR sort gate)": "low polyreactivity"},
      {"sequence": "QVQLVESGGGLVQAGGSLRLSCAASGLIFGYYGMGWYRQAPGKERELVAVITDDDSTTYADSVKGRFTISRDNAKNTVYLLMNSLKPEDTAVYYCNADNLLGRFDSWGQGTQVTVSS", "polyreactivity (PSR sort gate)": "low polyreactivity"},
      {"sequence": "QVQLVESGGGLVQAGGSLRLSCAASGLIFHNNAMGWYRQAPGKERELVARITRSCGSTYYADSVKGRFTISRDNAKNTFYLQMNSLKPEDTAVYYCATDALFDSGGMDYWGQGTQVTVSS", "polyreactivity (PSR sort gate)": "low polyreactivity"},
      {"sequence": "QVQLVESGGGLVQAGGSLRLSCAASGLIFIAYAMGWYRQAPGKERELVAAISSSGGSTYYADSVKGPFTISRDNAKNTFYLQMNSLKPEDTGVYYCAADRFDWGTGRYGYWVQGTQVTVSS", "polyreactivity (PSR sort gate)": "low polyreactivity"},
      {"sequence": "QVQLVESGGGLVQAGGSLRLSCAASGLIFIAYSMGWYRQAPGKEREFVAAITWNGVSTYYADSVKGRFTISRDNAKNTVYLQMNSLKPEDTAVYDCNADYDFSPWAYEYWGQGTQVTVSS", "polyreactivity (PSR sort gate)": "high polyreactivity"},
      {"sequence": "QVQLVESGGGLVQAGGSLRLSCAASGLIFIKNAMGWYRQAPGKERELVAAITRGSSTTYADSVKGRFTISRDNAKNTVYLQMNSLKPEDPAVYYCAAQYGGGYLKPYRREYWGQGTQVTVSS", "polyreactivity (PSR sort gate)": "high polyreactivity"},
      {"sequence": "QVQLVESGGGLVQAGGSLRLSCAASGLIFKKYTMGWYRQAPGKERELVASISKSGGSTYYADSVKGRFTISRDNAKNTVYLLMNSLKPDDTAVYYCAVGSTDRVSAQGSYFTYDYWGQGTQVNVSS", "polyreactivity (PSR sort gate)": "low polyreactivity"},
      {"sequence": "QVQLVESGGGLVQAGGSLRLSCAASGLIFKSYAMGWYRQAPGKERELVATISSSGSTNYADSVKGRFTISRDNAKNTVYLQMNSLKPEDTAVYYCNADDEVWWWIYDYWGQGTQVTVSS", "polyreactivity (PSR sort gate)": "low polyreactivity"},
      {"sequence": "QVQLVESGGGLVQAGGSLRLSCAASGLIFKVYAMGWYRQAPWKERELVAAITYSGGSTDYADSVKGRFTISRDNAKNTVYLQMNSLTPEDTAVYYCNVEKVGHVNSYGYDYWGQGTQVNVSS", "polyreactivity (PSR sort gate)": "low polyreactivity"},
      {"sequence": "QVQLVESGGGLVQAGGSLRLSCAASGLIFKYNAMGWYRQAPGKERELVAAISTSGGSTYYADSVKGRFTISRDNAKNTVYLQMNSLKPEDTAVYYCNAVAGRPFRYYYWGQGTQVTVSS", "polyreactivity (PSR sort gate)": "high polyreactivity"},
      {"sequence": "QVQLVESGGGLVQAGGSLRLSCAASGLIFKYNDMGWYRQAPGTEREFVAAISWRGGRTYYADSVKGRFTISRDNEKNTVYLQMNSLKPEDTAVYYCNAGYRIAQFPSPHIAYYGYGYWGQGTQVTVSS", "polyreactivity (PSR sort gate)": "high polyreactivity"},
      {"sequence": "QVQLVESGGGLVQAGGSLRLSCAASGLIFLWYVMGWYRQAPGKEREFVAAISWNGGGTYYADSVKGRFTISRDNAKNTVYLQMNSLKPDDTAVYYCAAQTYSNDYWGQGTQVTVSS", "polyreactivity (PSR sort gate)": "low polyreactivity"},
      {"sequence": "QVQLVESGGGLVQAGGSLRLSCAASGLIFNIYAMGWYRQAPGKERELVAAISKSGGSTYYADSVKGRFTISRDNAKNTVYLQMNSLKPEDTAVYYCAAPYLVRSQRYYYWGQGTQVTVSS", "polyreactivity (PSR sort gate)": "high polyreactivity"},
      {"sequence": "QVQLVESGGGLVQAGGSLRLSCAASGLIFPRYGMGWYRQAPGKERELVAAISWSGGSTYYADSVKGRFTISRDNAKNTVYLQMNSLKPEDTAVYYCAVLSNRGVYGSDYWGQGTQVTVSS", "polyreactivity (PSR sort gate)": "high polyreactivity"},
      {"sequence": "QVQLVESGGGLVQAGGSLRLSCAASGLIFPSYAMGWYRQAPGKERELVATINRGSRTNYADSVKGRFTISRDNAKNTVYLQMNSLKPEDTAVYYCAAHYTTFIPSPDGDYLGQGTQVTVSS", "polyreactivity (PSR sort gate)": "low polyreactivity"},
      {"sequence": "QVQLVESGGGLVQAGGSLRLSCAASGLIFPYYALGWYRQAPGKERELVAAISWRGGNTYYADSVKGRFTISRDNAKNTVYLQMNSLKPEDTAVYYCNTVQYRNEMGYWGQGTQVTVSS", "polyreactivity (PSR sort gate)": "high polyreactivity"},
      {"sequence": "QVQLVESGGGLVQAGGSLRLSCAASGLIFQHNAMGWYRQAPGKEMELVAAISRSAGSTYYADSVKGRFTISRDKAKNTVYLQMNSLKPEDTAVYYCARQYGYQPVRYGYWGQGTQVTVSS", "polyreactivity (PSR sort gate)": "low polyreactivity"},
      {"sequence": "QVQLVESGGGLVQAGGSLRLSCAASGLIFQYYAMGWYRQAPGKERELVAAISGSGVRSYYADSVKGRFTTSRDNAKNTVYLQMNSLKPEDTAVYYCNTLRQDIIRGDYWGQGTHVTVSS", "polyreactivity (PSR sort gate)": "high polyreactivity"},
      {"sequence": "QVQLVESGGGLVQAGGSLRLSCAASGLIFQYYAMGWYRQAPGKERELVASISGSGSSTYYADSVKGRFTISRDNEKNTVYLQMYSLKPEDTAVYYCAAGWGRGWYDYWGQGTQVTVSS", "polyreactivity (PSR sort gate)": "high polyreactivity"},
      {"sequence": "QVQLVESGGGLVQAGGSLRLSCAASGLIFRPYAMGGYRQAPGKARELVAAITSGGSTDYADSLKGRFTISRDNAKNTVYLQMNSLNPEDTAVFYCNADFYPHDGYPWQGDYDYWGQGTQVTVSS", "polyreactivity (PSR sort gate)": "low polyreactivity"},
      {"sequence": "QVQLVESGGGLVQAGGSLRLSCAASGLIFRRYAMGWYRQAPGKERELVAAINLSGGSTYYADSVKGRFTISRDNAKNTVYLQMNSLKPEDTAVYYCNAVSVYSLPRVGGRYDYWGQGTQVTVSS", "polyreactivity (PSR sort gate)": "high polyreactivity"},
      {"sequence": "QVQLVESGGGLVQAGGSLRLSCAASGLIFRRYTMGWYGQGPGKERELVAAITSSGGNTYYADSVKGRFTISRDNAKNTVYLQMNSLKPEDTAVYYCNNPGTHNYYYWGQGTQVTVSS", "polyreactivity (PSR sort gate)": "high polyreactivity"}
    ]}
  ]
}
